# Data published in article PMC7237485.
# Biological target: HA-tagged WT WD40 (FBW7ΔDF) (human) (UniProt Q969H0)
substance,measurement,value
"Merkel cell polyomavirus small T antigen, wild type (natural protein)","LT protein turnover (t1/2) in a cycloheximide chase, 293 cells co-transfected with LT and sT; FBW7 is that of the cells, not the ΔDF construct",> 10 h
